Data published in patent publication JP2007501612A (dated 2007).

How the values were obtained:
[1] = molecular target: Nogo receptor-1 (species and form not stated); assay: method not given
[2] = molecular target: T1, mutant peptide Arg119His LDLSDNAQLHVVDPTT (rat); assay: ELISA, peptide on MaxiSorp plate, serial dilution of 7E11
T1 peptide: LDLSDNAQLHVVDPTT

[3] = molecular target: T2, mutant peptide Gln117Ala LDLSDNAALRVVDPTT (rat); assay: as above
T2 construct: also called Gla117Ala (so in the source)
T2 peptide: LDLSDNAALRVVDPTT

sNogoR344-Fc = molecular target: T3, sNogoR344-Fc (rat, UniProt Q99M75 26-344); assay: SPA bead competition: inhibition of 125I-Nogo66 binding to immobilised sNogoR344-Fc
T3 construct: also called Fc-sNogoR344; Ig-sNogoR344; not shown: hinge region and Fc region of rat IgG1
T3 chain: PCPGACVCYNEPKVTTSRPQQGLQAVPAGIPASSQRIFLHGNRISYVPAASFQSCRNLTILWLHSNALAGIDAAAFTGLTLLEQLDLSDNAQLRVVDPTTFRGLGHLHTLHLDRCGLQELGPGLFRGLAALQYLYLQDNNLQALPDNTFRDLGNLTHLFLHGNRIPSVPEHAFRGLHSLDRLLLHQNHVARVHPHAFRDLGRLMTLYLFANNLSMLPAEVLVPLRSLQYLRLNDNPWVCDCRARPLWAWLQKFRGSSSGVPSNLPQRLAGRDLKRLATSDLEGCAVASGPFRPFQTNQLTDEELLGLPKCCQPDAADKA

B1: monoclonal antibody 7E11 (antibody, V domains shown)
VH: VQLQESGAELVMPGASVKMSCKASGYTFTDYWMHWVKQRPGQGLEWIGAIDPSDSYSSYNQNFKGKATLTVDGSSSTAYMQLSSLTSEDSAVYYCARRITEAGAWFAYWGQGTTVT
VL: DVVMTQTPLSLPVSLGDQASISCRSSQSLVHSNGNTYLHWYLQKPGQSPKLLIYKVSNRFSGVPDRFSGSGSGTDFTLKISRVDAEDLGVYFCSQSTHVPFTFGGGTKLEIKR
Question: With B1 as the binder, how does the Kd [1] read?
Answer: Its Kd is 0.1 µM.

Question: And the “fold increase of EC50 against the original peptide” value [2]?
Answer: Its value is 25 fold.

Question: What about the “fold increase of EC50 against the original peptide” value [3] of the same binder?
Answer: The value was 30 fold.

Question: And the IC50 (sNogoR344-Fc)?
Answer: Its IC50 is 0.4 µM.
